Test results as given in publication PMC8156467, “Disruption of YY1-EZH2 Interaction Using Synthetic Peptides Inhibits Breast Cancer Development” (Cancers, 2021).

These binders were tested against T1, His×6-YY1 (UniProt P25490 1-414) (assay: pull-down; GST-EZH2 fragments from E. coli lysates held on Glutathione-Sepharose beads, washed, 1.0 µg of purified His×6-YY1 added for 4 h at 4 °C; 20 mM Tris-HCl pH 7.5, 150 mM NaCl, 0.1% NP-40). Conditions: both partners purified.
T1 construct: Yin Yang 1 (YY1); The construct and its host are not described in the methods; also called purified His×6-YY1
T1 sequence (P25490 whole entry, the tested form may be a part): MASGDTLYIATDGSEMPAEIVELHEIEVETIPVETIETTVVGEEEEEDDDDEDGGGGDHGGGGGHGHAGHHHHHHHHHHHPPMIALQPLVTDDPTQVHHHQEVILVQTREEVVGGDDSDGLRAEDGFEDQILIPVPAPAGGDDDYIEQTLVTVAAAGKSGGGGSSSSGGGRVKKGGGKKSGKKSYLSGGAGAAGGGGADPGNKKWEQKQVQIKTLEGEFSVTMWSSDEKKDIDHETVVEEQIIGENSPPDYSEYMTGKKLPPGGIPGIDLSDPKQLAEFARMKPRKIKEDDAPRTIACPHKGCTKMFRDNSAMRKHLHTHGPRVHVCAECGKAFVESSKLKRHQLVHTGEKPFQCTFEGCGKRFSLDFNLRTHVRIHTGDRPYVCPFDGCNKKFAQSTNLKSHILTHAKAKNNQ

| Binder | binding result |
| --- | --- |
| GST-EZH2 (465–545) (domain or fragment, Vector pGEX-4T-1; source: E. coli; held on Glutathione-Sepharose beads from bacterial lysate (pull-down); purified (SPR)) not shown | binds |
| GST-EZH2 (385–618) (domain or fragment, Vector pGEX-4T-1; source: E. coli; held on Glutathione-Sepharose beads from bacterial lysate (pull-down); purified (SPR)) not shown | binds |
| GST-EZH2 (465–519) (domain or fragment, Vector pGEX-4T-1; source: E. coli; held on Glutathione-Sepharose beads from bacterial lysate) not shown | binds |
